From patent US20190092852A1

T1: human IL-33 (R&D Systems, #3625-IL-010/CF) (human) (UniProt O95760)
T1 sequence (looked up): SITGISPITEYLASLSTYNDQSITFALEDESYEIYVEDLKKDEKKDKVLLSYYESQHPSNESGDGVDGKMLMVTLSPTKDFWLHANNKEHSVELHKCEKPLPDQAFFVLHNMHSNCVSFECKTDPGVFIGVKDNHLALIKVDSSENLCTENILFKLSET

T2: biotinylated human IL-33 (human) (UniProt O95760)
T2 sequence (biotin-labeled with EZ-LINK NHS-PEG4-Biotin, looked up): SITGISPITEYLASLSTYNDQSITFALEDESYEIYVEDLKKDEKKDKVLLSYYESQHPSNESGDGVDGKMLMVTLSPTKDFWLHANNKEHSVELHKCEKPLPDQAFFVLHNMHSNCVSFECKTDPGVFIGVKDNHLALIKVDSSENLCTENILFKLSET

B1: H4H9663P (antibody, from another filing, IgG4, V domains shown)
VH: QVQLVQSGAEVKKPGASVKVSCKASGYTFTGHYMYWMRQAPGQGLEWMGWINPNSGGTNYAQKFQDRVTMTRDTSISTAYMELSRLRSDDTAVYYCARGRYGSSWYGGFEYWGQGTLVTVSS
VL: DIQMTQSPSSVSASVGDRVTITCRASQGITSWLAWYQQKPGKAPNLLIYAAASLQSGVPSRFSGSGSGTDFTLTISSLQPEDFTTYYCQQAYSLPLTFGGGTKVEIK
B2: H4H9675P (antibody, from another filing, IgG4, V domains shown)
VH: EVQLVESGGNLEQPGGSLRLSCTASGFTFSRSAMNWVRRAPGKGLEWVSGISGSGGRTYYADSVKGRFTISRDNSKNTLYLQMNSLSAEDTAAYYCAKDSYTTSWYGGMDVWGHGTTVTVSS
VL: DIQMTQSPSSVSASVGDRVTITCRASQGIFSWLAWYQQKPGKAPKLLIYAASSLQSGVPSRFSGSGSGTDFTLTISSLQPEDFAIYYCQQANSVPITFGQGTRLEIK
B3: H4H9666P (antibody, from another filing, IgG4, V domains shown)
VH: QVQLVQSGAEVKKPGASVKVSCKASGYTFTSYGISWVRQAPGQGLEWMGWIRAYNGYTNYAQKFQGRVTMTTDTSTNTAYMELRTLNSDDTAVYYCARDRYSGSFHGNFDYWGQGTLVTVSS
VL: DIQMTQSPSSVSASVGDRVTITCRASQGIFSWLAWYQQKPGKAPKVLIYAASNLESGVPSRFSGSGSGTDFTLTISSLQPEDFATYYCQQANSLPLTFGGGTKVEIK
B4: H4H9664P (antibody, from another filing, IgG4, V domains shown)
VH: QVQLVESGGGVVQPGRSLRLSCAASGFTFSSYGLHWVRQSPGKGLEWVALISYDGSNKYYADSVKGRFTISRDNSKNTLYLQMNSLRPEDTAGYFCAKSLYTTSWYGGFDYWGQGTLVTVSS
VL: DIQMTQSPSSVSASVGDRVTITCRASQGIRSWLAWYQQKPGKAPNLLIYAASSLQSGVPSRFSGSGSGTDFTLTISSLQPEDFATYYCQQANSFPPTFGPGTKVDIK
B5: H4H9671P (antibody, from another filing, IgG4, V domains shown)
VH: EVQLVESGGGLVQPGGSLRLSCAASGFTLRSYFMTWVRQVPGKGLEGVSAISGISGGTYYTDSVKGRFTISRDNSKNTLFLQMNSLRAEDTAVYFCARTVYSSSYYGGFQHWGQGTLVTVSS
VL: DIQMTQSPSSVSVSVGDRVTITCRASQGISSWLAWYQQKPGKAPKLLIYVASSLQSGVPSRFSGSGSGTDFTLTISSLQPEDFATYYCQQTNSFPLTFGGGTKVEIK
B6: H4H9662P (antibody, from another filing, IgG4, V domains shown)
VH: EVQLVESGGGLVQPGGSLRLSCAASGFTFSSYALTWVRQAPGKGLEWVSFISGSGGRPFYADSVKGRFTISRDNSKNMLYLQMNSLRAEDTAIYYCAKSLYTTSWYGGFDSWGQGTLVTVSS
VL: DIQMTQSPSSVSASVGDRVTITCRASQGVVSWLAWYQQKPGKAPKLLIYAASSLQSGVPSRFSGSGSGTDFTLTISSLQPEDFATYYCQQSNSFPFTLGPGTKVDIK
B7: H4H9665P (antibody, from another filing, IgG4, V domains shown)
VH: EVQLVESGGGLVQPGGSLRLSCAASGFTFSNYAMTWVRQAPGKGLEWVSTISGSGDNTYYADSVQGRFTISRGHSKNTLYLQMNSLRAEDTAVYYCAKPTYSRSWYGAFDFWGQGTMVTVSS
VL: DIQMTQSPSSVSASVGDRVTITCRASQGISSWLAWYQQKPGKAPQLLIYAASRLQSGVPSRFWGSGSGTDFTLTISSLQPEDFATYYCQQANNFPFTFGPGTKVDIK
B8: H4H9670P (antibody, from another filing, IgG4, V domains shown)
VH: EVQLVESGGGLVQPGGSLRLSCAASGFTLSSYAMSWVRQAPGKGLEWVSAISGSGGSTYYADSVKGRFTISRDNSKNSLYLQLNSLRAEDTAVYYCAKTLYTTSWYGGFQHWGQGTLVTVSS
VL: DIQMTQSPSSVSASIGDRVTITCRASQGISSWLAWYQQKPGKVPKLLIYAASSLQSGFPSRFSGSGSGTDFTLTISSLQPEDFATYYCQQTHSFPWTVGQGTKVEIK
B9: H4H9672P (antibody, from another filing, IgG4, V domains shown)
VH: EVQLVESGGGLVQPGGSLRLSCAASGFTLRSYVMYWVRQGPGKGLEGVSGISGSSGGTYYTDSVKGRFTISRDNSKNTLFLQMNSLRAEDTAVYFCARSVYSTTWYGGFQHWGQGTLVTVSS
VL: DIQMTQSPSSVSVSVGDRVTITCRASQVISSWLAWYQLKPGKAPKLLIYAASSLQSGVPSRFSGSGSGTDFTLTISGLQPEDFAVYYCQQTNSFPLTFGGGTKVEIK

Assays:
[1] = target: T1, human IL-33 (R&D Systems, #3625-IL-010/CF) (human)
[2] = target: T1, human IL-33 (R&D Systems, #3625-IL-010/CF) (human); remark: listed apart in the source
[3] = target: T2, biotinylated human IL-33 (human); assay: competitive ELISA, biotin-huIL-33 to coated hST2-Fc
[4] = target: T1, human IL-33 (R&D Systems, #3625-IL-010/CF) (human); remark: listed apart in the source
[5] = target: T1, human IL-33 (R&D Systems, #3625-IL-010/CF) (human); assay: SPR Biacore T200, 25 C
[6] = target: T1, human IL-33 (R&D Systems, #3625-IL-010/CF) (human); remark: listed apart in the source
[7] = target: T1, human IL-33 (R&D Systems, #3625-IL-010/CF) (human); assay: SPR Biacore T200, 37 C
[8] = target: T1, human IL-33 (R&D Systems, #3625-IL-010/CF) (human); remark: listed apart in the source
[9] = target: T1, human IL-33 (R&D Systems, #3625-IL-010/CF) (human); assay: cell-based or functional assay
[10] = target: T1, human IL-33 (R&D Systems, #3625-IL-010/CF) (human); remark: listed apart in the source

Row | Binder | IC50; SEAP reporter (OD 620), HEK-BLUE IL-33/IL-1beta cells, 10 pM hIL-33 [1] [M] | Ph-p38 MFI at 0.4 nM Ab (500 pM human IL-33, primary basophils) [2] [MFI] | IC50 [3] [nM] | Maximum Blocking [3] [%] | Ph-p38 MFI at 2 nM Ab (500 pM human IL-33, primary basophils) [4] [MFI] | Kd [5] [nM] | koff [5] [s⁻¹] | kon [5] [M⁻¹ s⁻¹] | t1/2 [5] [min] | IC50; IFN-gamma ELISA, primary human NK cells, 260 pM hIL-33 + IL-12 [6] [M] | Kd [7] [nM] | koff [7] [s⁻¹] | kon [7] [M⁻¹ s⁻¹] | t1/2 [7] [min] | IC50, IL-33-induced phospho-p38 in primary human basophils, 500 pM hIL-33 [8] [M] | HEK-BLUE SEAP reporter IC50 [9] [nM] | IFN-γ secretion from primary NK cells, IC50 [9] [nM] | phospho-p38 in primary basophils, IC50 [9] [nM] | IC50 (read off the curve) [10] [nM]
1 | B1 | 1.5e-09 | 123 | 0.44 | 82 | 80 | 0.558 | 0.000937 | 1.68e+06 | 12 | 4.6e-09 | 0.517 | 0.00161 | 3.11e+06 | 7 |  |  |  |  | 
2 | B2 |  | 48 | 0.063 | 84 | 30 | 0.391 | 0.000637 | 1.63e+06 | 18 |  | 0.192 | 0.000779 | 4.06e+06 | 15 | 3.5e-13 | 0.011 | 0.097 | 0.00038 | 
3 | B3 | 7.1e-10 | 90 | 0.21 | 81 | 71 | 1.74 | 0.00115 | 665000 | 10 | 1e-08 | 0.934 | 0.00158 | 1.69e+06 | 7 | 7.6e-06 |  |  |  | 
4 | B4 | 1.5e-10 | 63 | 0.19 | 87 | 40 | 1.31 | 0.000445 | 339000 | 26 |  | 0.674 | 0.000531 | 789000 | 22 |  |  |  | 0.00014 | 
5 | B5 | 5.7e-10 | 122 | 0.096 | 77 | 83 | 0.736 | 0.000963 | 1.31e+06 | 12 |  | 0.552 | 0.00203 | 3.68e+06 | 6 | 2.3e-12 |  |  |  | 0.002
6 | B6 | 1.5e-10 | 86 | 0.25 | 85 | 44 | 0.527 | 0.000459 | 871000 | 25 | 1.2e-09 | 0.242 | 0.000566 | 2.34e+06 | 20 | 2.5e-09 |  |  |  | 
7 | B7 | 1.1e-09 | 106 | 0.7 | 63 | 105 | 1.25 | 0.00116 | 931000 | 10 |  | 1 | 0.00235 | 2.35e+06 | 5 | 2.4e-09 |  |  |  | 
8 | B8 | 2.6e-09 | 118 | 0.42 | 80 | 90 | 0.761 | 0.000517 | 680000 | 22 |  | 0.519 | 0.000663 | 1.28e+06 | 17 |  |  |  |  | 
9 | B9 | 9.8e-10 | 113 | 0.22 | 77 | 61 | 0.839 | 0.000806 | 960000 | 14 |  | 0.531 | 0.00127 | 2.39e+06 | 9 | 5.7e-13 |  |  |  | 0.0006
